According to publication PMC5603883, “Challenges to Design and Develop of DNA Aptamers for Protein Targets. II. Development of the Aptameric Affinity Ligands Specific to Human Plasma Coagulation Factor VIII Using SEC-SELEX”:

Target: coagulation factor VIII (plasma-derived, Haemoctin 500) (Homo sapiens, UniProt P00451 20-2351)
Assay: nitrocellulose filter binding, fluorescence of filtrate; 5 mM CaCl2, 5 mM MgCl2; Tris 40 mM, NaCl 117 mM, CaCl2 5 mM, MgCl2 5 mM, pH 7.4; selection at 4 °C, Kd assay temperature not stated; FVIII 20 ng (700 pM), DNA 0.5-700 nM
Conditions: protein: commercial; label: fluorescein via labelled reverse primer (S3) stated for the labelling PCR; the labelled strand is not explicitly specified; predicted three-branch stem-loop

Sequence of coagulation factor VIII (plasma-derived, Haemoctin 500) (P00451 20-2351): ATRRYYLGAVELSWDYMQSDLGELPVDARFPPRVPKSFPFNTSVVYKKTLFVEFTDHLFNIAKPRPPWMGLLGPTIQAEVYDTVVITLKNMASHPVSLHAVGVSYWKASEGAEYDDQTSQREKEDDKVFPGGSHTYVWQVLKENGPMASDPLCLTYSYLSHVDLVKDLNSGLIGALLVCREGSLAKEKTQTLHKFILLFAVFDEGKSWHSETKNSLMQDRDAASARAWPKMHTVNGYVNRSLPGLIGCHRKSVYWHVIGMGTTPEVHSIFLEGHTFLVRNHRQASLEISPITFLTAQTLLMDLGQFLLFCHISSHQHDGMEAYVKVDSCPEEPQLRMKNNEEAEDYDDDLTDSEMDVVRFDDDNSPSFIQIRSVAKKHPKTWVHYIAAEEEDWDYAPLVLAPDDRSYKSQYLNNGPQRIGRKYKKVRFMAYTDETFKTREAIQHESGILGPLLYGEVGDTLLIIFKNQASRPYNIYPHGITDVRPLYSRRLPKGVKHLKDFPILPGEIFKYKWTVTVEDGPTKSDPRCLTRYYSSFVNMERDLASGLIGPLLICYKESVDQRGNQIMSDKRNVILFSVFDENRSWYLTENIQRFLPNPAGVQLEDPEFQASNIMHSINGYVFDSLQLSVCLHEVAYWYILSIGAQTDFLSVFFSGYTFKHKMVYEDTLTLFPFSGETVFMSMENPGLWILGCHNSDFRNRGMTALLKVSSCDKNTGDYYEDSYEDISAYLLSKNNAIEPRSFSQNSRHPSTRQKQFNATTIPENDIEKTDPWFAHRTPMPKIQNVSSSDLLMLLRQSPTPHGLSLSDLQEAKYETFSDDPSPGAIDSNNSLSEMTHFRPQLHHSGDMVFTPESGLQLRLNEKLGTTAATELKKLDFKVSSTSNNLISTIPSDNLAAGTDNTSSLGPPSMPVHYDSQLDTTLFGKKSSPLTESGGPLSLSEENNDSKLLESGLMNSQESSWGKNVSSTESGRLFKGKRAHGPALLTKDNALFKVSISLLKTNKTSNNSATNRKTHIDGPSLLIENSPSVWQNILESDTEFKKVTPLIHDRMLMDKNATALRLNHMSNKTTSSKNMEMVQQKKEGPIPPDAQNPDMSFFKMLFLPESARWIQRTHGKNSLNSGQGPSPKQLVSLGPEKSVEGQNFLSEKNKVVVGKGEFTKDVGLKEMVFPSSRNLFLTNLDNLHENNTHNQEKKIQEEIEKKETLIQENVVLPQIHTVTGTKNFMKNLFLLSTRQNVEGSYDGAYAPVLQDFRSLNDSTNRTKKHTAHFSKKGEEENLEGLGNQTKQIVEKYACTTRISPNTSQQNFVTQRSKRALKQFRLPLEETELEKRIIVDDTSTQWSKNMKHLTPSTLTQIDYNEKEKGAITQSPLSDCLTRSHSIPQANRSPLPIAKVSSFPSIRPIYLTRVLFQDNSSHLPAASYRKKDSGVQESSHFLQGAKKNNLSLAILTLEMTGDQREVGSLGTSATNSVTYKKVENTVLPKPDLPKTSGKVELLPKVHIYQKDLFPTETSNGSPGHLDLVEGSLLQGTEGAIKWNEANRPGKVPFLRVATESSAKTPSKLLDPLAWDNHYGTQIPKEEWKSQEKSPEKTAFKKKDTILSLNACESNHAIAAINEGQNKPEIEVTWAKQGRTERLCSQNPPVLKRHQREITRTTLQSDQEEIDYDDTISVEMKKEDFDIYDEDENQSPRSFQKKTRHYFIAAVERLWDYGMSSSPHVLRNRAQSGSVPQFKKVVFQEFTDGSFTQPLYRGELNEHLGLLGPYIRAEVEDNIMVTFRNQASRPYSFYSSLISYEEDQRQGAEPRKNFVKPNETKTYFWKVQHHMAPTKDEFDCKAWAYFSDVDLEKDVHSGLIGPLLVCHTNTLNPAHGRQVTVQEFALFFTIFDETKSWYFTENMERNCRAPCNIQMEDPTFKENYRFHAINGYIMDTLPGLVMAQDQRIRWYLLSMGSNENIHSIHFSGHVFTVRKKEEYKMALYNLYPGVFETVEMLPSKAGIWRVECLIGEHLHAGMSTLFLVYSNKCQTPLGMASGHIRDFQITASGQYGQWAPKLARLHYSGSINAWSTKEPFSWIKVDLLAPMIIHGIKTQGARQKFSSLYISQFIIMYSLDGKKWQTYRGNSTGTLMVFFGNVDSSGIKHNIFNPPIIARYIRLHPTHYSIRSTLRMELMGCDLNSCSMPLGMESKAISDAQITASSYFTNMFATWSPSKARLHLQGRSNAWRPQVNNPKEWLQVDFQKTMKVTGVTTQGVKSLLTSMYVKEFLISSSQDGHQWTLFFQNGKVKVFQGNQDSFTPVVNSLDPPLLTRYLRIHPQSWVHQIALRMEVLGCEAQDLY

B1: FVIII aptamer (full-length clone, 77 nt) (ssDNA)
DNA: GGTGTTACTCTTCATGTGGATCCGTACGTCCTGGGCTTCTTGATCGTCAGCCGAAGAATTCAGCACCCTAGCCTCGT
- Kd: 925 ± 11.6 nM
